Numbering of substitutions follows the chain as printed. Where two headings read alike, the source gives them in different places. One block for each binder: values may come before it.
Key:
[1] = biological target: T1, soluble human IL-6 receptor (human, UniProt P08887 20-357); experiment: SPR 37C, 3 µM CaCl2
T1 construct: also called hsIL-6R
T1 sequence: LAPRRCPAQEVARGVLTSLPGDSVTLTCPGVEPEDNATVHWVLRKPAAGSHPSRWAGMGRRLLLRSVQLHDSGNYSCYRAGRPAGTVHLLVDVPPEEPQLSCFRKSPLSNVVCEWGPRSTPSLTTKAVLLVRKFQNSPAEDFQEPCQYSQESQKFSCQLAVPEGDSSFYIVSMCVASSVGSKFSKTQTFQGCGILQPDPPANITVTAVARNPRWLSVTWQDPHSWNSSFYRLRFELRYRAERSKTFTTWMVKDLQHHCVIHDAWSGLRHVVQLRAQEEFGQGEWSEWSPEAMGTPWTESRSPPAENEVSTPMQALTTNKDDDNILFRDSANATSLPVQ

[2] = biological target: T1, soluble human IL-6 receptor; experiment: SPR 37C, 3 µM Ca, estimated from Req
[3] = biological target: T2, human FcRn (soluble, complexed with β2-microglobulin) (human, UniProt P61769 21-119); experiment: SPR pH7.0
[4] = biological target: T2, human FcRn (soluble, complexed with …); experiment: SPR pH7.0; remark: listed apart in the source
[5] = biological target: T2, human FcRn (soluble, complexed with …); experiment: SPR pH7.0; remark: listed apart in the source
mouse FcγRI [6] = biological target: T3, mouse FcγRI (mouse, UniProt P26151 25-297); experiment: SPR pH7.4
T3 construct: bought; also called mFcgRI
T3 sequence (looked up): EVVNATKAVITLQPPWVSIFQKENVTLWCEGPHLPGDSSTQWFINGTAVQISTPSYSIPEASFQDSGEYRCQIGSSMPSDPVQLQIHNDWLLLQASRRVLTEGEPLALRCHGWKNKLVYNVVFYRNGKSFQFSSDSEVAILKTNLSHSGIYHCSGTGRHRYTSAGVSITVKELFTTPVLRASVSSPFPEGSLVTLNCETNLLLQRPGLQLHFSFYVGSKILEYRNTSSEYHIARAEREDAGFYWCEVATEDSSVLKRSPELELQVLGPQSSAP

mouse FcγRIII [7] = biological target: T4, mouse FcγRIII (mouse, UniProt P08508 31-215); experiment: SPR pH7.4
T4 construct: bought; also called mFcgRIII
T4 sequence (looked up): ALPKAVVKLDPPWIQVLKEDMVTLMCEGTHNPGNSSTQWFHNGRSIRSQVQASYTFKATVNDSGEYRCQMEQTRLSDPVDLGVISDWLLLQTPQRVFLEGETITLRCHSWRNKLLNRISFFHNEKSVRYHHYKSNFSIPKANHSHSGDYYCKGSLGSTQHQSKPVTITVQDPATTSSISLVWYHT

mouse FcγRIIb [8] = biological target: T5, mouse FcγRIIb (mouse, UniProt P08101 40-217, limits assumed); experiment: SPR pH7.4
T5 construct: bought; also called mFcgRIIb; mFcgRII
T5 sequence (looked up): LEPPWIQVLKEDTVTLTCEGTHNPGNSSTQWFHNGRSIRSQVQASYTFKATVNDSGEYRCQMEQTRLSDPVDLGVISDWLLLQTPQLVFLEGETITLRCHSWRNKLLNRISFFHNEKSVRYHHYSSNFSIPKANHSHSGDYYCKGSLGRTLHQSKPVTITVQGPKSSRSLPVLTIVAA

mouse FcγRIV [9] = biological target: T6, mouse FcγRIV (mouse, UniProt A0A0B4J1G0 21-203); experiment: SPR pH7.4
T6 construct: bought; also called mFcgRIV
T6 sequence: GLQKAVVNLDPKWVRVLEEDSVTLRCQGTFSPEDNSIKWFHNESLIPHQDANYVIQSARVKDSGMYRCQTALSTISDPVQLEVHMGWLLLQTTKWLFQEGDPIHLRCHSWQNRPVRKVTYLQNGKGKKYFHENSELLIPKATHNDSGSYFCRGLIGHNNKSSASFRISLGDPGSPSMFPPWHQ

[10] = biological target: T2, human FcRn (soluble, complexed with …); experiment: SPR pH7.0; remark: listed apart in the source
[11] = biological target: T2, human FcRn (soluble, complexed with …); experiment: SPR pH7.0; remark: listed apart in the source
[12] = biological target: T2, human FcRn (soluble, complexed with …); experiment: SPR pH7.0; remark: listed apart in the source
mouse FcγRI [13] = biological target: T3, mouse FcγRI; experiment: SPR pH7.4; remark: listed apart in the source
mouse FcγRIII [14] = biological target: T4, mouse FcγRIII; experiment: SPR pH7.4; remark: listed apart in the source
mouse FcγRIIb [15] = biological target: T5, mouse FcγRIIb; experiment: SPR pH7.4; remark: listed apart in the source
mouse FcγRIV [16] = biological target: T6, mouse FcγRIV; experiment: SPR pH7.4; remark: listed apart in the source
[17] = biological target: T2, human FcRn (soluble, complexed with …); experiment: SPR pH7.0; remark: listed apart in the source
[18] = biological target: T2, human FcRn (soluble, complexed with …); experiment: SPR pH7.0; remark: listed apart in the source
[19] = biological target: T2, human FcRn (soluble, complexed with …); experiment: SPR pH7.0; remark: listed apart in the source
[20] = biological target: T2, human FcRn (soluble, complexed with …); experiment: SPR pH7.0; remark: listed apart in the source
mouse FcγRI [21] = biological target: T3, mouse FcγRI; experiment: SPR pH7.4; parameters: unit not given here
mouse FcγRIII [22] = biological target: T4, mouse FcγRIII; experiment: SPR pH7.4; parameters: unit not given here
mouse FcγRIIb [23] = biological target: T5, mouse FcγRIIb; experiment: SPR pH7.4; parameters: unit not given here
mouse FcγRIV [24] = biological target: T6, mouse FcγRIV; experiment: SPR pH7.4; parameters: unit not given here
[25] = biological target: T2, human FcRn (soluble, complexed with …); experiment: SPR pH7.0; remark: listed apart in the source
[26] = biological target: T2, human FcRn (soluble, complexed with …); experiment: SPR pH7.0; remark: listed apart in the source

B1: 6RL#9-IgG1 (antibody, V domains shown)
VH: QVQLVQSGAEVKKPGASVKVSCKASGYTFTSYYMHWVRQAPGQGLEWMGIINPSGGSTSYAQKFQGRVTMTRDTSTSTVYMELSSLRSEDTAVYYCARDDPGGGEYYFDYWGQGTLVTVSS
VL: QSVLTQPPSVSGAPGQRVTISCTGSRSNMGAGYDVHWYQLLPGAAPKLLISHNTHRPSGVPDRFSGSKSGASASLAITGLQAEDEADYYCQSHDSSLSAVVFGGGTKLTVLS
Kd [1]: ≥ 31000 nM | Kd [2]: ~31000 nM

B2: FH4-IgG1 (antibody, V domains shown)
VH: QVQLVQSGAEVKKPGSSVKVSCKASGGTFSSYAISWVRQAPGQGLEWMGGIIPIFGTANYAQKFQGRVTITADESTSTAYMELSSLRSEDTAVYYCARERDYYDSSGYYDAFDIWGQGTMVTVSS
VL: ETTVTQSPSFLSASVGDRVTITCITTTDIDDDMNWFQQEPGKAPKLLISEGNILRPGVPSRFSSSGYGTDFTLTISKLQPEDFATYYCLQSDNLPFTFGQGTKLEIKR
Kd [1]: ≥ 34000 nM | Kd [2]: ~34000 nM

B3: VH3/L(WT)-IgG1-F21 (antibody)
chain 1: QVQLQESGPGLVKPSETLSLTCAVSGHSISHDHAWSWVRQPPGEGLEWIGFISYSGITNYNPSLQGRVTISRDNSKNTLYLQMNSLRAEDTAVYYCARSLARTTAMDYWGEGTLVTVSSASTKGPSVFPLAPSSKSTSGGTAALGCLVKDYFPEPVTVSWNSGALTSGVHTFPAVLQSSGLYSLSSVVTVPSSSLGTQTYICNVNHKPSNTKVDKKVEPKSCDKTHTCPPCPAPELLGGPSVFLFPPKPKDTLYISRTPEVTCVVVDVSHEDPEVKFNWYVDGVEVHNAKTKPREEQYNSTYRVVSVLTPLHQDWLNGKEYKCKVSNKALPAPIEKTISKAKGQPREPQVYTLPPSRDELTKNQVSLTCLVKGFYPSDIAVEWESNGQPENNYKTTPPVLDSDGSFFLYSKLTVDKSRWQQGNVFSCSVMHEALHYHYTQKSLSLSP
chain 2: not shown
Kd [3]: 30 nM | Kd [4]: 30 nM | Kd [5]: 30 nM | binding amount (mouse FcγRI [6]): 315 RU | binding amount (mouse FcγRIII [7]): 371 RU | binding amount (mouse FcγRIIb [8]): 112 RU | binding amount (mouse FcγRIV [9]): 242 RU

B5: VH3/L(WT)-IgG1-F140 (antibody)
chain 1: B3 chain 1 with S241K
chain 2: not shown
Kd [3]: 36 nM | Kd [4]: 36 nM | binding amount (mouse FcγRIII [7]): 46.6 RU | binding amount (mouse FcγRIIb [8]): -1.8 RU | binding amount (mouse FcγRIV [9]): 108 RU | Kd [17]: 36 nM

B10: VH3/L(WT)-IgG1-F157 (antibody)
chain 1: B3 chain 1 with Y254M, P259A, M430L
chain 2: not shown
Kd [3]: 150 nM | binding amount (mouse FcγRI [6]): 315 RU | binding amount (mouse FcγRIII [7]): 276 RU | binding amount (mouse FcγRIIb [8]): 129 RU | binding amount (mouse FcγRIV [9]): 243 RU | Kd [17]: 150 nM

Further lines, results first:

Kd [10]: 150 nM | Kd [11]: 153 nM | Kd [12]: 150 nM | binding amount (mouse FcγRI [13]): -2 RU | binding amount (mouse FcγRIII [14]): -24.9 RU | binding amount (mouse FcγRIIb [15]): -6.3 RU | binding amount (mouse FcγRIV [16]): -7.3 RU
B4: VH3/L(WT)-IgG1-F939 (antibody)
chain 1: B3 chain 1 with L237R, S241K, P310V, Y438V
chain 2: not shown

Kd [18]: 12 nM | Kd [10]: 12 nM | Kd [11]: 12 nM | binding amount (mouse FcγRI [13]): 0.6 RU | binding amount (mouse FcγRIII [14]): -12.9 RU | binding amount (mouse FcγRIIb [15]): -1.5 RU | binding amount (mouse FcγRIV [16]): 7.2 RU
B6: VH3/L(WT)-IgG1-F1009 (antibody)
chain 1: B3 chain 1 with L237R, S241K, T252V, T309Q, Q313A, Y438V
chain 2: not shown

Kd [3]: 94 nM | binding amount (mouse FcγRIIb [8]): -2.5 RU | binding amount (mouse FcγRIV [9]): 138 RU | Kd [19]: 94 nM
B7: VH3/L(WT)-IgG1-F424 (antibody)
chain 1: B3 chain 1 with S241K, Y254M, P259A, M430L
chain 2: not shown

Kd [10]: 110 nM | Kd [11]: 107 nM | Kd [20]: 110 nM | binding amount (mouse FcγRI [13]): 268 RU | binding amount (mouse FcγRIII [14]): 284 RU | binding amount (mouse FcγRIIb [15]): 69.3 RU | binding amount (mouse FcγRIV [16]): 230 RU
B8: VH3/L(WT)-IgG1-F890 (antibody)
chain 1: B3 chain 1 with P310V, Y438V
chain 2: not shown

Kd [10]: 11 nM | Kd [11]: 11 nM | Kd [12]: 11 nM | binding amount (mouse FcγRI [13]): 299 RU | binding amount (mouse FcγRIII [14]): 382 RU | binding amount (mouse FcγRIIb [15]): 117 RU | binding amount (mouse FcγRIV [16]): 242 RU | binding amount (mouse FcγRI [21]): 329 | binding amount (mouse FcγRIII [22]): 664 | binding amount (mouse FcγRIIb [23]): 129 | binding amount (mouse FcγRIV [24]): 279 | Kd [25]: 11 nM
B9: VH3/L(WT)-IgG1-F947 (antibody)
chain 1: B3 chain 1 with T252V, T309Q, Q313A, Y438V
chain 2: not shown

Kd [10]: 310 nM | Kd [26]: 310 nM | binding amount (mouse FcγRI [13]): 0.6 RU | binding amount (mouse FcγRIII [14]): -20.3 RU | binding amount (mouse FcγRIIb [15]): -4.5 RU | binding amount (mouse FcγRIV [16]): -3.8 RU
B11: VH3/L(WT)-IgG1-F821 (antibody)
chain 1: B3 chain 1 with L237R, S241K, P310V
chain 2: not shown

From patent publication EP2698431B1 (Chugai Seiyaku Kabushiki Kaisha, dated 2020)
